Laboratory results from the RNAGym collection of RNA variant scans (doi:10.1073/pnas.2313332121).
This sample holds only a part of the variants without activity.

B1: TPR 5TU (parent)
chain: GGAUCUUCUCGAUCUAACAAAAAAGACAAAUCUGCCACAAAGCUUGAGAGCAUCUUCGGAUGCAGAGGCGGCAGCCUUCGGUGGCGCGAUAGCGCCAACGUUCUCAACUAUGACACGCAAAACGCGUGCUCCGUUGAAUGGAGUUUAUCAUG

Variants of: B1
Assay: polymerase ribozyme fitness, log enrichment relative to wild type (log ratio); higher = more active; in vitro selection for triplet polymerase activity
How it was run: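 To select mutant libraries of each subunit of a heterodimeric triplet polymerase ribozyme, built by PCR and transcribed, each was annealed with a biotinylated primer, partner subunit and triplets, then incubated frozen at −7 °C. Extended constructs were gel-excised, captured on streptavidin beads and amplified by RT-PCR, in one round carried out in triplicate. Illumina sequencing of input and output libraries kept genotypes with ≥10 input reads and ≥1 read per output. Fitness is the base-2 logarithm of genotype enrichment relative to wild-type enrichment, from inverse-variance-weighted replicate averages.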

Variant | polymerase ribozyme fitness (log ratio)
GGAUCUUCUCGAUCCAACAAAAAAGACAAAUCUGCAACAAAGCUUGAGAGCAUCUUCGGUUGCAGAGGCGGCAGCCUUCGGUGGGGCGAUAGCGCCAACGUUCUCAACUAUGACAUGCAAAACGCGUGCUCCGUUGAAUGGAGUUUAUCAUG | ≤ -4.2
GGAUCUUCUCGAUCCAACAAAAAAGACAAAUCUGGCACUAAGCUUGAGAGCAUCUUCGGAUGCAGAGGCGGCGGCCUUCGGUCGCGCGAUAGCGCCAACAUUCUCAGCUAUGACACGCAAAACGAGUGCUCCGUUGAAUGUAGUUUAUCAUG | ≤ -4.2
GGAUCUUCUCGAUCCAACAAAAAAGACAAAUCUGCCACAAAGCUUGAGAGCAUCUUCGGAUGCAGAGGCGGCAGCCUUCGGUGGCGCGAUAGUGCCAACGUUCUCAACUAUGACACGCAAAUCGCGUGCUCCGUUGAAUGGAGUUUAUCAUG | -0.873
GGAUCUUCUCGAUCCAACAAAAAAGACAAAUCUGCCAUAAAGCUUGAGGGCAUCUUCGGAUGCAGAGGCGGCAGCCUUCGGUGGCGCGAUAGCGCCAACGUUGUCAACUAUGACACGCAAAACGCGUGCUCCGUUGAAUGUAGUUUAUCAUG | ≤ -4.2
GGAUCUUCUCGAUCCAACAAAAAAGACAAAUCUGCCACAAAGCUUGAGAGCAUCUUCGGAUGCAGAGGCGGCAGACUUCGGUGGCGCGAUAGCGCGAACGUUCUCAACUAUGACACGCAAAACGCGUGCUCCGUUGAAUGGAGUUUAUCAUG | ≤ -4.2
GGAUCUUCUCGAUCCAACAAAAAAGACAAAUCUCCCACAAAGCUUGAGAGCAUCUUAGGAUGCAGAGGCGGCAGCCUUCGGUGUCGCGAUAGCGCCAUCGUUCUCAACUAUGACACGCAAAACGCGUGCUCCGUUGAAUGGAGUUUAUCAUG | -2.33
GGAUCUUCUCGAUCCAACAAAAAAGACAAAUCUGCCACAAAGCUUGAGAGCAUCGUCGGAUGCAGAGGCGGCAGCCUUCGGUGGCGCGAUAGCGCCAACGUUCUCAACUAUGACACGCAAAACGCGUGCUCCGUUGAAUGGAGUUUAUCAUG | 0.263
GGAUCUUCUCGAUCCAACAAAAAAGACAAAUCUGCCACAAAGCUUGAGAGCAUAUUCGGAUACAGAGGCGGCAGCCUACGGUGGCGCCAUAGCGCCAACGUUCUCAACUAUGCCACGCAAAACGCGUGCUCCGUUGAAUGGAGUUUAUCUUG | ≤ -4.2
GGAUCUUCUCGAUCGAACAUAAAAGACAAAUCUGCCACAAAGCUUGAGAGCAUUUUCGGAUGCAGAGGCGGCAGCCUUCGGUGGGGCGAUAGCUCCAACGUUCCCAACUAUGACACGCAAAACGCGUGCUCCGUUGAAUGGAGUUUAUCAUG | -2.12
GGAUCUUCUCGAUCCAACAAAAAAGACAAAUCUGCCACAAAGCUUGAGAGCAUCUUCGGAUGCAGAGGCGGCAGCCUUCGGUGCCGCGAUAGCGCCAACGUUCUCAACUAUGACACGCAAAACGUGUGCUCCGGUGAAUGGAGUUUAUCUUG | ≤ -4.2
GGAUCUUCUCGAUCGAACUAAAAAGACAAAUCUGCCACAAAGCUUGAGAGCAUCUUCGGAUGCAGAGGCGGCAGCCUUCGGUGGCGCGAUUGCGCCAACGUUCUCAACUAUGACACGCAAAACGCGUGCUCCGUUGAAUGGAGUUUAUCAUG | -3.99
GGAUCUUCUCGAUCGAACAAAAAAGACAAAUCUGCCACAAAGCUUGAGAGCAUCUUCGGAUGCAGAGGCGGCAGCCUUCGGUGGCGCGAUAGCGCCAACGUUCUCAACUAUGACACGCAAAACGCGUGCUCCGUUGAAUGGAGUUUAUCAUG | -0.334
GGAUCUUCUCGAUCGAGCAAAAAAGACAAAUCUGCCAAAAAGCUUGAGAGCAUCUUCGGAUCCAGAGGCGGCAGCCUUCGAUGGGGCGAUAGCGCCAACGUUCUCAACUAUGACACGCAAAACGCGUGCUCCGUUGAAUGGAGUUUAUCAUG | ≤ -4.2
GGAUCUUCUCGAUCCAACAAAAAAGACAAAUCUGCCAUAAAGCUUGAGAGCAUCUUCGGAUGCAGAGGCGGCAGCCUUCGGUGGCUCGAUUGCGCCAACGUUCUCAACUAUGACACGCAAAACGCUUGCUCCGGUGAAUGGGGUUUAUCAUG | ≤ -4.2
GGAUCUUCUCGAUCGUACAAAAAAGACAAAUCUGCCACAACGCUUGAGAGCCUCUUCGGAUGCAGAGGCGGCAGCCUUCGCUUGCGCGAUAGCGCCAACGUUCUCUACUAUGACACGCAAAACGCGAGCUCCGUUGAAUGGAGUUUAUCAUG | ≤ -4.2
GGAUCUUCUCGAUCCAACAAAAAAGACAAAUCUGCCACAAAGCUUAAGAGCAUCUUCGAAUGCAGAGGCGGCAGCCUUCGGUGGCGCGAUAGAGCCAACGUUCUCAACUAUGACACGCAAAACGCGUGCUCCGUUGAAUGGAGUUUAUCAUG | -3.01
GGAUCUUCUCGAUCGCACAAAAAAGACAACUCUGCCACAAAGCUUGCGAGCAUCUUCGGAUGCAGAGGCGGCAGCCUUCGGUGGAGCGAUAGCGCCAACGUUCUCAACUAUGACACGCAAAACGCGUGCUCCCUUGAAUGGACUUUAUCUUG | ≤ -4.2
GGAUCUUCUCGAUCCAACAAAAAAGACAAAUCUGCCACAAAGCUUGAGAGAAUCUUCGGAUGCAGAGGCGGCAGCCUUCGGUGGCUCGAUAGCGCCAACGUUCUCAACUAUGACACGCAAAACGCGUGCUCCGUUGAAUGGAGUUUAUCAUG | -1.6
GGAUCUUCUCGAUCCAACAAAAAAGACAAAUCUGCCACAAAGCUUGAGAGCAUCUUCGGAUGCAGAGGCGGCAGCCUUCGGUGGCGCGAUAGCGCCAACGUUCUCAACUAUGACACGCAAAACGCGUGCUCCGUUGAAUGGAGUCUAUCGUG | -0.684

Variant | polymerase ribozyme fitness (log ratio)
GGAUCUUCUCGAUCCAACAAAAAAGACAAAUCUGCCACAAAGCUUGAGAGCAACUUCGGAUGCAGAGGCGGCAGCCUUCGGUGGCGCGAUAGCGCCAGCGUUCUGAACUAUGACACGCAAAACGCGUGCUCCGUUGAAUGGAGUUGAUCAUG | ≤ -4.2
GGAUCUUCUCGAUCCAACAAAAAAGACAAAUCUGCCAAAAAGCUUGAGAGCAUCUUCGGAAGCAGAGGCGGCAGCCUUCGGUGGCGUGAUAGCGCCAACGUUCUCAACUAUGACACGCAAAGCGCGUGCUCCGUUGAAUGGAGUUUAUCAUG | -2.73
GGAUCUUCUCGAUCGAACAUAAAAGACAAAUCUGCCGCAAAGCUAGAGACCAUCUUCGGAUGCAGAGGCUGCAGCCUUCGGUGGCGCGAUAGCGUCAACGUUCUCAACUAUGACACGGAAAACGCGUGCUCCGUUGAAUGCAGUUUCUCAUA | ≤ -4.2
GGAUCUUCUCGAUCCAACAAAAAAGACAAAUCUGCCACAAAGCUUGAGAGCAUCUUCGGAUGCAGAGGCGGCAGCCUUCGGUGGCGCGAUAGGGCCAACGUUCUCAACUAUGACACGCAAAACGCGUGCUCCGUUGAAUGGAGUUUAUCAUG | -2.27
GGAUCUUCUCGAUCCAACAAAAAAGACAAAUCUGCCACAAAGCUUGAGAGCAUCUUUGAAUGCAGAGUCGGCAGCCUUCGGUGCCGCGAUAGCGCCAACGUUCUCAACUAUGACACGCAAAACGCGUGAUCCGUUGAAUGGAGUUUAUCAUG | ≤ -4.2
GGAUCUUCUCGAUCGAACAAUAAAGACAAAUCUGCCACGAAGCUUGGGAGCAUCUUCGGAUGCAGAGGCGGCAGCCUUCGGUAGCGCGAUAGCGCCAACGUUCUCAACUAUGACACGCAAAACGCGUGCUCCGUUGAAUGGGGUUUAUCAUG | -3.92
GGAUCUUCUCGAUCCAACAAAAAAGACAAAUCUGCCACAAAGCUUGAGAGCAUCUUCGGAUGCAGAGGCGGCAGCCUUCGGUGUCGCGAUAGCGCCAACGUUCUCAACUAUGACACGCAAAACGCGUGCUCCGUUGAAUGGAGUUUAUCAUG | -0.83
GGAUCUUCUCGAUCGAACAUAAAAUACAAAUCUGCCACAAAGCUUGAGAGCAUCUUCGGAUGCAGAGGCGGCAGCCUUCGGUGGCGUGAUAGCGCCAACGUUGGCAACUAUGACACGCAAGACGCUUGCUCCGCUGAAUGGAGUUUAUAAUG | ≤ -4.2
GGAUCUUCUCGAUCGAACUUAAAAGACAGAUCUGCCACAAAGCUUGAGAGCAUCUAAGGAUGUAGAGGCGGCAGCCUUCGGUGGCGCGAUAGCACCAACGUUCUCAACUAUGACACGCAAAACGCGUGCUCCGUUGAAUGGAGUGUAUCAUG | ≤ -4.2
GGAUCUUCUCGAUCCAACAAAAAAGACAAAUCUGCCACAAAGCUUGAGAGCAUCUUGGGAUGCAGAGGCGGCAGCCUUCGGGGGCGCGAUAGCACCAACGUUCUCAACUAUGACACGCAAAACGCGUGCUCCGUUGAAUGGAGUUUAUCAUG | 0.771
GGAUCUUCUCGAUCGAACACAAAAGACAAAUCUGCCACAAAUCUUGAGAGCGUCUUCGGAUGCAGAGGCGGCAGCCUUCGGUGGUGCGAUAGGGCCAACGUUAUCAACUAUGACACGCAAAACGCGUGCUCCGUUGAAUGGAGUUUAUCAUG | ≤ -4.2
GGAUCUUCUCGAUCGAUCAAAAAAGACAAAUCUGCCACAAAGCUUGAGAGCAUCUUCGGAUGCAGAGGCGGCAGCCUUGAUUGGCGCGAUAACGCCAACGUUCUCAACUAUGACACGCAAAACACGUGCUCCGUUGAAUGGAGUUUUUCAUG | ≤ -4.2
GGAUCUUCUCGAUCCAACAAAAAAGACAAAUCUGCCACAAAGCUUGAGAGCAUCUUCGGAUGCAGAGGCGGCAGCCUUCCGUGGCGCGAUAGGGCCAACGUUCUCAACUAUGACAGGCAAAACGCGUGCUCCGUUGAAUGGAGUUUAUCAUG | -4.05
GGAUCUUCUCGAUCGACCAAAAAAGAGAAAUCUGCCACAAAGCUUGAGAGAAUCUUCGAAUGCAGAGGCGGCAGUCUUCGGUGGCGUGAUAGCGCCAACGUUCUCAACUAUGACACGCAAAACGCGUGCUCCGUUGAAUGGAGUUUAUCAUG | ≤ -4.2
GGAUCUUCUCGAUCCAACAAAAAAGACAAAUCUGCCACAAAGCUUGAGAGCAUAUUCGAAUGCAGAGGCGGCAGCCUUCGGUGUCGCGAUAGCGCCAACGUUCUCGACUAUGACACGCAAAACGCGUGCUCCGUUGAAUGGAGUUGAUCAUG | -2.98
GGAUCUUCUCGAUCCAACAAAAAAGACAAAUCUGCGACAAAGCUUGAGAGCAUCUUCGGAUGCAGAGGCGGCAGCCUUCGGUGGCGCGAUAGCGCCAACGUUCUCAACUAUGACACGCAAAACGCGUGCUCCGUUGAAUGGAGUUUAUCAUG | -3.28
GGAUCUUCUCGAUCGACCAAAAAAGACAAAUCUGCCACACAGCUUGAGAGCAUCUUCGGAUGCAGAGGCGGCAGCCUUCGGUGGCGCGAUAGCGCCAACGUUCUCAACUAUGACACGCAAAACGCGUGCUCCGUUGAAUGGAGUUUAUCAUG | 0.895
GGAUCUUCUCGAUCGAACAACAAAGACAAAUCUGCCACAAAGCUUGAGCGCAUUUUCGGAUGCAGAGGCGGCAGCCUUCGGUGGCACGAUAGCGCCAACGUUCUCAACUAUGACACGCAAAACGCGUGCUCCGUUGAAUGGAGUUUAUCAUG | ≤ -4.2
GGAUCUUCUCGAUCGAACAAUAAAGACAAAUCUGCCACAAAGCUUGAGAGCAUCUUCGGAUGCAGAGGCGGCAGCCUUCGGUGGUGCGAUAGCGCCAACGUUCUCAACUAUGACACGCAAUACGCGUGCUCCGUUGAGUGGAGUUUAUCAUG | -4.04
